Literature values in publication PMC3470569.

Molecular target: V-ATPase subunit a proximal lobe of N-terminal domain (Saccharomyces cerevisiae) (UniProt P32563)
Sequence (P32563 104-372): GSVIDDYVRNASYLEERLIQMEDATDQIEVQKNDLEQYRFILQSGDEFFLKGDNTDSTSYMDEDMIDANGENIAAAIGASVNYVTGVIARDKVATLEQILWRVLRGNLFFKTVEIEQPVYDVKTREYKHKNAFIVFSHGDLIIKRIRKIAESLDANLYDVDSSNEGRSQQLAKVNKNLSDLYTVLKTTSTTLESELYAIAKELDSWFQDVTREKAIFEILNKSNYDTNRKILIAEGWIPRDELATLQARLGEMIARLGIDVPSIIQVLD

V-ATPase subunit C Cfoot, sequence (P31412 158-277): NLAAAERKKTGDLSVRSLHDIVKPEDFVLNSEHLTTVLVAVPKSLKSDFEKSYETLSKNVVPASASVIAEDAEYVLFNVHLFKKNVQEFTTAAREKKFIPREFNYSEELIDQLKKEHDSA

- Kd: 30 µM
Substance: V-ATPase subunit C Cfoot (from UniProt P31412)
